Common to all, as to assay: cell-based or functional assay
The target of assay [1] is HIV-1 93UG077 Env (HIV-1).
The target in assay [2] is HIV-1 APV13 Env (HIV-1).
The target in assay [3] is HIV-1 Env of isolate MGRM-F1-014 (pseudovirus) (HIV-1).
Assay [4] has as its target HIV-1 JR-CSF Env F317A (HIV-1 (isolate JR-CSF, clade B)) (UniProt P20871).
Assay [5] concerns the target HIV-1 JR-CSF Env H330A (HIV-1 isolate JR-CSF) (UniProt P20871).
The target of assay [6] is HIV-1 JR-CSF Env T341A (HIV-1 isolate JR-CSF) (UniProt P20871).
In assay [7] the target is HIV-1 envelope glycoprotein (Env) of isolate 92BR020, on pseudovirus (HIV-1).
Assay [8] deals with HIV-1 envelope glycoprotein (Env) of isolate 92WR026, subtype A (HIV-1).
Assay [9] addresses HIV-1 envelope glycoprotein (Env) of isolate MG RM-A-002, subtype A (HIV-1).
For assay [10], the target named is HIV-1 envelope glycoprotein (Env) of isolate MGRM-Chronic-B-010, on pseudovirus (HIV-1).
The target of assay [11] is HIV-1 92RW020 envelope glycoprotein (Env), on pseudovirus (HIV-1 isolate 92RW020 (clade A)).
The target in assay [12] is HIV-1 92TH021 envelope protein (Env) on pseudotyped virus (HIV-1 strain 92TH021).
For assay [13], the target named is HIV-1 93IN905 envelope protein (Env) on pseudotyped virus (HIV-1 strain 93IN905).
In assay [14] the target is HIV-1 ADA envelope glycoprotein (Env), on pseudovirus (HIV-1 isolate ADA).
For assay [15], the target named is HIV-1 Env of isolate 94KE105 (pseudovirus) (HIV-1).
The target in assay [16] is HIV-1 Env of isolate CAAN.A2 (subtype B), on pseudovirus (HIV-1).
In assay [17] the target is HIV-1 Env of isolate MGRM-A-011 (pseudovirus) (HIV-1).
Assay [18] deals with HIV-1 Env of isolate MGRM-Chronic-B-004 (subtype B), on pseudovirus (HIV-1).
Assay [19] addresses HIV-1 Env of isolate MGRM-Chronic-B-017 (subtype B), on pseudovirus (HIV-1).
Assay [20] has as its target HIV-1 Env of isolate MGRM-F1-013 (subtype F) (HIV-1).
Assay [21] deals with HIV-1 Env of pseudovirus MGRM-F1-013 (clade F) (HIV-1).
For assay [22], the target named is HIV-1 JR-CSF envelope protein (Env) on pseudotyped virus (HIV-1 isolate JR-CSF) (UniProt P20871).
Assay [23] deals with HIV-1 envelope glycoprotein (Env) of isolate 92WR021 (HIV-1).
Assay [24] concerns the target HIV-1 envelope glycoprotein (Env) of isolate 92WR026 (HIV-1).
Assay [25] addresses HIV-1 envelope glycoprotein (Env) of isolate MG RM-A-003 (HIV-1).
The target of assay [26] is HIV-1 JR-CSF Env I323A (HIV-1 (isolate JR-CSF, clade B)) (UniProt P20871).
The target of assay [27] is HIV-1 JR-CSF Env N262A (HIV-1 (isolate JR-CSF)) (UniProt P20871).
Assay [28] concerns the target HIV-1 JR-CSF Env T202A (HIV-1 (isolate JR-CSF)) (UniProt P20871).
The target in assay [29] is HIV-1 SF162 envelope protein (Env) on pseudotyped virus (HIV-1 isolate SF162) (UniProt P19550).
Assay [30] deals with aMLV envelope (negative control).
Assay [31] has as its target HIV-1 JR-CSF Env V292A (HIV-1 (isolate JR-CSF, clade B)) (UniProt P20871).
Assay [32] concerns the target HIV-1 JR-CSF Env R350A (HIV-1 isolate JR-CSF) (UniProt P20871).
Assay [33] concerns the target HIV-1 92TH021 envelope glycoprotein (Env) on pseudovirus (HIV-1).
The target in assay [34] is HIV-1 92UG005 envelope glycoprotein (Env) on pseudovirus (HIV-1).
Assay [35] deals with HIV-1 92UG024 envelope glycoprotein (Env) on pseudovirus (HIV-1).
The target in assay [36] is HIV-1 APV13 envelope glycoprotein (Env) on pseudovirus (HIV-1).
Assay [37] addresses HIV-1 APV17 envelope glycoprotein (Env) on pseudovirus (HIV-1).
Assay [38] concerns the target HIV-1 JRFL envelope glycoprotein (Env) on pseudovirus (HIV-1).
Assay [39] addresses HIV-1 MGRM-A-010 envelope glycoprotein (Env) on pseudovirus (HIV-1).
For assay [40], the target named is HIV-1 MGRM-C-027 envelope glycoprotein (Env) on pseudovirus (HIV-1).
The target in assay [41] is HIV-1 MGRM-C-028 envelope glycoprotein (Env) on pseudovirus (HIV-1).

From US20240132578A1 come the findings set out here.

Where only a bound is given, the exact number is not on record here.

Regarding 4858_P08 (PGT-123) (antibody), the IC50, pseudovirus neutralization amounted to 0.0303 µg/mL in assay [1]; 0.222 µg/mL in [2]; 0.008 µg/mL in [7]; 0.012 µg/mL in [8]; 0.011 µg/mL in assay [9]; 0.009 µg/mL in assay [10]. In assay [3], this substance registered an IC50 (µg/mL), pseudovirus neutralization of 0.111 µg/mL. Moreover, the Fold IC50 increase relative to wild-type was determined as 3.1 fold in assay [4], 0.3 fold in assay [5] and 0.3 fold in assay [6].
Broadly, the IC50 is the midpoint of a concentration-inhibition curve. With 1496_C09 (PG9) (TCN-109) (antibody), the IC50 (ug/ml), pseudovirus neutralization, TZM-bl assay stood at 0.1 µg/mL in assay [11] and 0.2 µg/mL in assay [14]. Also, the IC50, Neutralizing Antibody Assay, Virus/Ab Incubation 1 hour is 0.0612 µg/mL in [12], 0.144 µg/mL in [13] and below 0.0025 µg/mL in [22]. Besides, the values for the IC50, Neutralizing Antibody Assay, Virus/Ab Incubation 18 hour in assay [12], in assay [13] and in assay [22] were 0.0571 µg/mL, 0.0619 µg/mL and below 0.0025 µg/mL, respectively. In addition, the IC50 (µg/mL), pseudovirus neutralization is 37.9 µg/mL in [15], 0.033 µg/mL in assay [17] and 1.25 µg/mL in [20]. For the same substance, the IC50, single-round pseudovirus neutralization was 19.3 µg/mL in assay [16], 0.533 µg/mL in [18] and 0.688 µg/mL in [19]. Also, the IC50 in assay [21] came out at 0.56 µg/mL; in assay [23], 0.027 µg/mL; in assay [24], 0.164 µg/mL; in assay [25], 1.94 µg/mL.
As for 5114_A19 (PGT-128) (antibody), the results for the Fold IC50 increase relative to wild-type in assay [26] and in assay [27] were 3 fold and 1.6 fold, respectively.
For 5145_B14 (PGT-127) (antibody), the IC50 (µg/mL), pseudovirus neutralization in assay [3] was above 50 µg/mL. Further, the Fold IC50 increase relative to wild-type in [5] worked out at 0.5 fold; in [26], 4 fold; in assay [28], 1.8 fold. The IC50, pseudovirus neutralization in assay [7] was 0.059 µg/mL; in assay [8], 0.024 µg/mL; in assay [9] it was 9.42 µg/mL; in [10], 0.019 µg/mL.
As for 1443_C16 (PG16) (TCN-116) (antibody), the IC50 (ug/ml), pseudovirus neutralization, TZM-bl assay in assay [11] was 0.09 µg/mL; in assay [14], 0.004 µg/mL. The IC50, Neutralizing Antibody Assay, Virus/Ab Incubation 1 hour in [12] is 0.136 µg/mL; in [13] it was 0.33 µg/mL; in [22], below 0.0025 µg/mL; in [29] it was above 50 µg/mL. Moreover, the IC50, Neutralizing Antibody Assay, Virus/Ab Incubation 18 hour in assay [12] is 0.0435 µg/mL; in assay [13], 0.255 µg/mL; in [22], below 0.0025 µg/mL; in [29], above 50 µg/mL. In assay [30], this substance displayed an IC90 (neutralization of pseudovirus) above 50 µg/mL.
Take PGV04 (antibody): the results for the IC50 (µg/mL), pseudovirus neutralization in [15], in assay [17] and in assay [20] were 2.98 µg/mL, 0.09 µg/mL and 0.084 µg/mL, respectively. Further, the figures for the IC50, single-round pseudovirus neutralization in assay [16], in assay [18] and in assay [19] were 2.26 µg/mL, 0.047 µg/mL and 0.129 µg/mL, respectively. Moreover, the IC50 was 0.038 µg/mL in assay [23], 0.14 µg/mL in assay [24] and 0.128 µg/mL in assay [25].
Consider 5123_A06 (PGT-125) (antibody), for which the IC50, pseudovirus neutralization in assay [1] was 0.0262 µg/mL; in assay [2], 0.0128 µg/mL; in assay [7], 0.016 µg/mL; in assay [8] it was 0.007 µg/mL; in [9], 0.013 µg/mL; in assay [10] it was 0.006 µg/mL. The same substance returned an IC50 (µg/mL), pseudovirus neutralization in assay [3] above 50 µg/mL. Besides, the figures for the Fold IC50 increase relative to wild-type in assay [28] and in assay [31] were 0.8 fold and 3.3 fold, respectively.
Regarding 5136_H01 (PGT-131) (antibody), the Fold IC50 increase relative to wild-type is 96 fold in assay [4]; 38 fold in [26]; 1.3 fold in [32]; 2.7 fold in [28]; 1.3 fold in [6]; 1.4 fold in assay [31].
Regarding 5147_N06 (PGT-130) (antibody), the IC50, pseudovirus neutralization in assay [1] is above 10 µg/mL; in assay [2], 0.0345 µg/mL. For the same substance, the Fold IC50 increase relative to wild-type in [4] was 17 fold; in assay [27], 0.7 fold; in assay [32], 0.5 fold.
In the case of 5343_B08 (PGT-135) (antibody), the Neutralization IC80 in assay [33] is above 10 µg/mL; in assay [34], above 10 µg/mL; in assay [35], 0.054 µg/mL; in [36], above 10 µg/mL; in assay [37], above 10 µg/mL; in [38], above 10 µg/mL. Besides, the Neutralization IC80 in assay [39], in assay [40] and in assay [41] was above 10 µg/mL in each case. The Neutralization IC90 in [33] was above 10 µg/mL; in assay [34], above 10 µg/mL; in [35] it was 0.122 µg/mL; in assay [36], above 10 µg/mL; in [37], above 10 µg/mL; in [38], above 10 µg/mL. The Neutralization IC90 in assay [39], in assay [40] and in assay [41] was above 10 µg/mL each time. In addition, the Neutralization IC95 in [33] was above 10 µg/mL; in assay [34] it was above 10 µg/mL; in [35], 0.267 µg/mL; in assay [36] it was above 10 µg/mL; in assay [37], above 10 µg/mL; in assay [38], above 10 µg/mL. Further, the Neutralization IC95 in assay [39], in [40] and in [41] was above 10 µg/mL in each case. Also, the neutralization IC50 was above 10 µg/mL in assay [33]; above 10 µg/mL in assay [34]; 0.0139 µg/mL in assay [35]; 0.545 µg/mL in assay [36]; above 10 µg/mL in assay [37]; above 10 µg/mL in assay [38]. The neutralization IC50 in assay [39] is above 10 µg/mL; in assay [40], above 10 µg/mL; in [41], 2.16 µg/mL. Moreover, the Fold IC50 increase relative to wild-type in assay [5] was above 250 fold; in assay [27] it was 2.1 fold; in assay [28] it was 1.8 fold; in assay [6], 0.6 fold; in [31], 2 fold.
